Source: patent publication US20220048982A1 (Eli Lilly, published 2022)
Positions count from the first letter of the chain named. Like-named read-outs stand apart in the source and are kept apart here.

T1: biotinylated human α-synuclein peptide 120-140 (human, biotinylated (site not stated))
T1 construct: also called α-synuclein fragment 120-140
T1 peptide: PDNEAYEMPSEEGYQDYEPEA

B1: Antibody 1 (antibody, human IgG4 S228P, kappa, F234A L235A, V domains shown)
VH: EVQLLESGGGLVQPGGSLRLSCAASGFTFSSYAMSWVRQAPGKGLEWVSAISGSGGDTYYADSVKGRFTISRDNSKNTLYLQMNSLRAEDTAVYYCARGYGMDVWGQGTTVTVSS
VL: DVVMTQSPLSLPVTLGQPASISCRSSQSLVHSDGNTYLMWFQQRPGQSPRRLIYKVSNRNSGVPDRFSGSGSGTDFTLKISRVEAEDVGVYYCMQGTKQYPTFGQGTKLEIKR
modifications: about 1% of the N-terminal glutamic acid may be converted to pyroglutamic acid; less than about 1% of the C-terminal glycine may be clipped
notes: IgG4PAA, kappa
B2: Antibody 2 (antibody, human IgG4 S228P, kappa, F234A L235A, V domains shown)
VH: B1 VH with K65Q
VL: B1 VL with S28D, N58D
modifications: about 1% of the N-terminal glutamic acid may be converted to pyroglutamic acid; less than about 1% of the C-terminal glycine may be clipped
notes: IgG4PAA, kappa

Assays:
[1] = molecular target: pHAb-dye labelled human α-synuclein fibrils (1-140) (human, UniProt P37840 1-140); test: cell-based or functional assay
mIgG1-hAsyn100-140 [2] = molecular target: T2, mIgG1-hAsyn100-140 (mouse; human, UniProt P37840 100-140); test: MSD-SET solution equilibrium at 37 C
T2 construct: C-terminal fragment of human α-synuclein fused onto the C-terminal end of a mouse Fc; also called dimeric human alpha-synuclein; dimeric α-synuclein; not shown: mouse IgG1 Fc fragment; short unstructured linker element

[3] = molecular target: T1, biotinylated human α-synuclein peptide …; test: ELISA on biotinylated human alpha-synuclein peptide 120-140, detection with goat anti-human kappa-AP, OD560
Method: (§1) An ELISA plate is coated with recombinant human α-synuclein fibril at 1 μg/ml in PBS overnight at 4° C. The next day, the plate is incubated with 1% casein for 1 hour at room temperature to block non-specific binding sites on the plate. […] After incubation, the plate is washed three times with 0.1% PBST to remove un-bound antibody and incubated with a detection agent (1:1000 diluted goat-anti-human Kappa-AP) in 0.1% PBST for 1 hour at room temperature. The plate is washed three times with 0.1% PBST to remove un-bound detection agent and incubated with a substrate for 15 minutes at room temperature. The OD is then read in an ELISA plate reader at 560 nm. The binding curve is obtained based on the antibody concentration and OD560 readout.
(§2) Binding full-length (1-140) α-synuclein is also determined. The procedure is essentially as described above for α-synuclein fibril binding.

[4] = molecular target: T3, recombinant human α-synuclein fibril (human, UniProt P37840 1-140); test: cell-based or functional assay
[5] = molecular target: T3, recombinant human α-synuclein fibril; test: ELISA, plate coated with fibril at 1 µg/ml
Method: An Enzyme-Linked Immunosorbent Assay (ELISA) is performed for quantitative determination of antibody affinity to recombinant human α-synuclein fibril.
as §1

[6] = molecular target: monomeric human alpha-synuclein fragment 1-121 (human, UniProt P37840 1-121); test: Kinexa at 37 C, solution equilibrium
Method: (§3) These samples are incubated for 24 to 48 hours at 37 C to allow for steady state equilibrium to be achieved. During this time, sepharose beads are conjugated with monomeric human alpha-synuclein and blocked with a suitable non-specific binding protein (typically BSA or casein). Once steady state is achieved, a small capillary is packed with coated beads and samples of each fixed antibody/alpha-synuclein monomer are injected over the column. […] This step is repeated for each concentration of alpha-synuclein monomer and resultant fluorescent signal (proportional to percent free antibody) and then plotted as a function of fluorescent signal versus monomeric α-synuclein concentration and globally fit to a 1:1 binding model to obtain KD. Independent runs (n=3) run with technical duplicates (95% confidence intervals) are reported.

[7] = molecular target: monomeric human alpha-synuclein fragment 1-115 (human, UniProt P37840 1-115); test: Kinexa at 37 C, solution equilibrium
Method: as §3

[8] = molecular target: T4, monomeric human α-synuclein (human, UniProt P37840 1-140); test: Kinexa at 37 C, solution equilibrium
Method: as §3

mIgG1-hAsyn100-140 [9] = molecular target: T2, mIgG1-hAsyn100-140; test: MSD-SET solution equilibrium at 25 C
Method: During this incubation time, an MSD Sector plate is coated with monomeric human alpha-synuclein and blocked with a blocking reagent (i.e. BSA, casein). Following steady state equilibrium incubation times, individual antibody/mIgG1-hAsyn 100-140 mixtures are added simultaneously to the plate and allowed to incubate for 10 minutes to capture free antibody and minimize exchange with antibody in complex with mIgG1-hAsyn100-140. Following this short incubation, plates are subsequently washed and incubated with a biotinylated anti-human secondary antibody, followed by detection using streptavidin-S-tag on the MSD instrument. The resultant MSD signal (proportional to % free antibody) is then plotted as a function of mIgG1-hAsyn100-140 concentration and globally fit to a four parameter fit to obtain IC₅₀ (KD). Reported 95% confidence intervals represent the fitting of N=3 independent runs each with technical duplicates. The avidity-factor is the ratiometric difference between monomer affinity and dimer affinity and represents the selectivity in binding between monomeric and dimeric α-synuclein for antibody.

[10] = molecular target: truncated human α-synuclein fragment 1-120 (human, UniProt P37840 1-120); test: ELISA on plate-coated truncated human alpha-synuclein fragment 1-120, detection with goat anti-human kappa-AP, OD560
Method: as §1, §2

mIgG1-hAsyn100-140 [11] = molecular target: T2, mIgG1-hAsyn100-140; test: ratio of Kinexa KD for monomeric human α-synuclein to MSD-SET KD for dimeric α-synuclein, 37 C
Method: During this time, sepharose beads are conjugated with monomeric human alpha-synuclein and blocked with a suitable non-specific binding protein (typically BSA or casein). Once steady state is achieved, a small capillary is packed with coated beads and samples of each fixed antibody/alpha-synuclein monomer are injected over the column. […] This step is repeated for each concentration of alpha-synuclein monomer and resultant fluorescent signal (proportional to percent free antibody) and then plotted as a function of fluorescent signal versus monomeric α-synuclein concentration and globally fit to a 1:1 binding model to obtain KD. Independent runs (n=3) run with technical duplicates (95% confidence intervals) are reported.
During this incubation time, an MSD Sector plate is coated with monomeric human alpha-synuclein and blocked with a blocking reagent (i.e. BSA, casein). Following steady state equilibrium incubation times, individual antibody/mIgG1-hAsyn 100-140 mixtures are added simultaneously to the plate and allowed to incubate for 10 minutes to capture free antibody and minimize exchange with antibody in complex with mIgG1-hAsyn100-140. Following this short incubation, plates are subsequently washed and incubated with a biotinylated anti-human secondary antibody, followed by detection using streptavidin-S-tag on the MSD instrument. […]

[12] = molecular target: T4, monomeric human α-synuclein; test: ELISA on plate-coated full-length (1-140) human alpha-synuclein, detection with goat anti-human kappa-AP, OD560
Method: as §1, §2

[13] = molecular target: monomeric mouse alpha-synuclein (mouse, UniProt O55042 1-140); test: Kinexa at 37 C, solution equilibrium
Method: as §3

[14] = molecular target: T4, monomeric human α-synuclein; test: Kinexa at 37 C, solution equilibrium; remark: listed apart in the source
Method: as §3

[15] = molecular target: monomeric rat alpha-synuclein (rat, UniProt P37377 1-140); test: Kinexa at 37 C, solution equilibrium
Method: as §3

[16] = molecular target: monomeric rabbit alpha-synuclein (rabbit); test: Kinexa at 37 C, solution equilibrium
Method: as §3

| Binder | Average IC50, inhibition of fibril internalization into SH-SY5Y cells [1] | IC50 Standard Deviation, inhibition of fibril internalization into SH-SY5Y cells [1] | Kd (mIgG1-hAsyn100-140 [2]) | EC50 (read off the curve) [3] | Average IC50, inhibition of alpha-synuclein aggregation in SHSY-5Y-A53T-myc cells [4] | EC50 [5] | Kd [6] | Kd [7] | Kd [8] | Kd (mIgG1-hAsyn100-140 [9]) | EC50 (read off the curve) [10] | avidity factor (monomer KD against dimer KD) (mIgG1-hAsyn100-140 [11]) | EC50 (read off the curve) [12] | Kd [13] | Kd [14] | Kd [15] | Kd [16] |
| --- | --- | --- | --- | --- | --- | --- | --- | --- | --- | --- | --- | --- | --- | --- | --- | --- | --- |
| B1 | 0.45 µg/mL | 0.017 µg/mL | 0.00097 nM | ~0.9 nM | 0.41 µg/mL | 0.000193 µg/mL | 11.8 nM | 675 nM | 19 nM | 0.00012 nM | ~0.7 nM | ~20000 fold | ~1 nM | 49.7 nM | 19 nM | 89 nM | 554 nM |
| B2 | 0.56 µg/mL | 0.026 µg/mL |  | ~5 nM | 0.4 µg/mL | 0.000161 µg/mL |  |  |  | 0.0032 nM | ~0.6 nM |  | ~0.8 nM | 99.3 nM | 65.6 nM | 140 nM | 1020 nM |
